The source of these data is patent US20030175679A1, “Methods for cell screening of compounds capable of modulating the activity of ubiquitin-ligase scf complexes and their uses” (priority 1999, published 2003).

First the molecules themselves.
B1: Ha-Met4: Met4 protein derivative with three hemagglutinin (Ha) antigenic units at its amino-terminal end, expressed in yeast under the GAL1 promoter (protein, UniProt P32389 1-672, looked up)
Transcriptional activator of …: MKQEQSHEGDSYSTEFINLFGKDTATHPSSNNGANNNGMGSTNSLDQFVATASSSSSLVTSSENRRPLIGDVTNRGNTNLYDHAVTPEILLEQLAYVDNFIPSLDNEFSNVDWNVNTTHNNANNNGADTFSSINANPFDLDEQLAIELSAFADDSFIFPDEDKPSNNNNNSNNGNDDHSNHDVLHEDPSTNNRQRNPHFLTQRRNTFLTSQYDQSKSRFSSKNKRNGNNGETNNFGDNMQNNHPFEPNFMGSPSQFPADATNMTSIDHGGFTNVDITSTENNTTGDNGVDALSNLLHRTTHTPNRSSPLSNVTSAQNSSSQQRKHSESKVDSNSDNNSSNKAPNITVPDYSIIPTSVLVTLLPRVNVPNGAYNSLISAGFDNDQIDAIAAIMAYHHQKKIRENNSNNNKNINTNDSQEAPILKNINELLSVLIPPSPAETRGPTTLSTSPSFNEHGVVAEASFLSSILELGIKHPKSNNIHNQRQPSRNDHKISRESDGNNGNDNVHHNNAVIKSSTTRGDEIAKIRSEPTLNASSSDHKENSLKRSHSGDLKNKKVPVDRKYSDNEDDEYDDADLHGFEKKQLIKKELGDDDEDLLIQSKKSHQKKKLKEKELESSIHELTEIAASLQKRIHTLETENKLLKNLVLSSGETEGIKKAESLKKQIFEKVQKE
modifications: N-terminal 3x HA tag
notes: Met4 protein derivative with three hemagglutinin (Ha) antigenic units at its amino-terminal end, expressed in yeast under the GAL1 promoter
B2: Ha-Met28: full-length Met28 protein with a repetition of 3 hemagglutinin (Ha) antigenic units at its amino-terminal end (protein, UniProt P40573 1-187, looked up)
chain: MSAKQGWEKKSTNIDIASRKGMNVNNLSEHLQNLISSDSELGSRLLSLLLVSSGNAEELISMINNGQDVSQFKKLREPRKGKVAATTAVVVKEEEAPVSTSNELDKIKQERRRKNTEASQRFRIRKKQKNFENMNKLQNLNTQINKLRDRIEQLNKENEFWKAKLNDINEIKSLKLLNDIKRRNMGR
modifications: full-length N-terminal 3x HA tag
notes: full-length Met28 protein with a repetition of 3 hemagglutinin (Ha) antigenic units at its amino-terminal end
B3: Ha-Met30: full-length Met30 protein with a repetition of 3 hemagglutinin (Ha) antigenic units at its amino-terminal end (protein, UniProt P39014 1-640, looked up)
chain: MRRERQRMMSFEDKDKDDLDNSNSNNSSEMTDTAMMPPLKRLLITGSSDDLAQGSSGKKKMTMATRSPSSSPDLATNDSGTRVQPLPEYNFTKFCYRHNPDIQFSPTHTACYKQDLKRTQEINANIAKLPLQEQSDIHHIISKYSNSNDKIRKLILDGILSTSCFPQLSYISSLVTHMIKIDFISILPQELSLKILSYLDCQSLCNATRVCRKWQKLADDDRVWYHMCEQHIDRKCPNCGWGLPLLHMKRARIQQNSTGSSSNADIQTQTTRPWKVIYRERFKVESNWRKGHCRIQEFKGHMDGVLTLQFNYRLLFTGSYDSTIGIWDLFTGKLIRRLSGHSDGVKTLYFDDRKLITGSLDKTIRVWNYITGECISTYRGHSDSVLSVDSYQKVIVSGSADKTVKVWHVESRTCYTLRGHTEWVNCVKLHPKSFSCFSCSDDTTIRMWDIRTNSCLKVFRGHVGQVQKIIPLTIKDVENLATDNTSDGSSPQDDPTMTDGADESDTPSNEQETVLDENIPYPTHLLSCGLDNTIKLWDVKTGKCIRTQFGHVEGVWDIAADNFRIISGSHDGSIKVWDLQSGKCMHTFNGRRLQRETQHTQTQSLGDKVAPIACVCIGDSECFSGDEFGCVKMYKFDLND
modifications: full-length N-terminal 3x HA tag
notes: full-length Met30 protein with a repetition of 3 hemagglutinin (Ha) antigenic units at its amino-terminal end

One assay has as its system Yeast cells. Nature of the assay: Stability of Ha-labeled hybrid proteins expressed from the GAL1 promoter, measured with anti-Ha antibodies. The class given is cell-based, S. cerevisiae. The settings on record: in the absence of methionine (-Met).
For B1, the “half-life of the hybrid protein” value was around 20 min.

Take B2: the “half-life of the hybrid protein” value was around 20 min.

Turning to B3, the “half-life of the hybrid protein” value is around 20 min.

Staying with this assay, now noted: repressive conditions, in the presence of methionine (+Met).
On to B1, for which the “half-life of the hybrid protein” value was around 5 min.

On to B2, for which the “half-life of the hybrid protein” value is given as “do not modify the half-life”.

With B3, the “half-life of the hybrid protein” value is given as “do not modify the half-life”.
